Laboratory results as given in the supplement of paper PMC12764529.
± gives the half width of the 95% confidence interval.

Assays:
[1] = folding stability dG unfold from chymotrypsin proteolysis; higher = more stable
Procedure, shortened: (§1)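 Unfolding free energy was derived, per protease or combined, against a sequence-predicted unfolded-state K50 and a shared folded-state K50, starting from K50 inferred by Bayesian fitting of sequencing counts. Digestion with trypsin and chymotrypsin was carried out on designed mini-proteins under 80 residues without cysteine in a PA-tagged cDNA display construct. Only designs with AlphaFold2 dimer inter-PAE above 15 were kept.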

[2] = folding stability dG unfold (combined trypsin and chymotrypsin); higher = more stable
Procedure, shortened: as §1

[3] = folding stability dG unfold from trypsin proteolysis; higher = more stable
Procedure, shortened: as §1

| Sequence | folding stability dG unfold [1] [kcal/mol] | folding stability dG unfold [2] [kcal/mol] | folding stability dG unfold [3] [kcal/mol] |
| --- | --- | --- | --- |
| SAGGMTITVKPPDGTVITYTSETLPEIIAKLDPNGTYTITIEVPKVDPSNGGARPIVKTYTVPKERISAGGS [r16_806_JUSTAS] | 1.21 ± 0.17 | 1.19 ± 0.17 | 0.865 ± 0.11 |
| SAGEEVYLITVRIIDPETNEVKEITKLIKNKTEDEILEELRKLLEELGIELPEGAKVEITITKIKPPPESAG [r5_230_TrROS_Hall] | 4.07 ± 0.44 | 4.26 ± 0.82 | 3.53 ± 0.52 |
| SAGGSAGGSAGGSILLITTHPKDAEKAAKEIEKILAELDIPPDAKIEVYVVPKEYLPDESAGGSAGGSAGGS [r4_472_TrMRF] | 0.176 ± 0.17 | 0.329 ± 0.14 | 0.323 ± 0.035 |
| SAGGSAGGSDIPIEIVDVEHTDNMISVIIKGPDGNYFVINFQFNPGNGKFNVNISIIPPEDLKSAGGSAGGS [r20_70_TrROS] | 3.95 ± 0.26 | 3.55 ± 0.26 | 2.07 ± 0.21 |
| SAGGSAGGSAGGSWITFRIPEGNPEFIEELARGFGIKPKRINPNRGTITIKLPPGAKIVSAGGSAGGSAGGS [r4_3_TrROS] | 0.645 ± 0.096 | 0.641 ± 0.11 | 0.474 ± 0.12 |
| PLVLRLPDGAEAVRVEFFPERNTVVAFFRAPDRLLVVEVRFEPVGGGLLAPVRVRALPVPPTPEQLRLLAES [r1_154_TrMRF] | 2.58 ± 0.089 | 2.17 ± 0.093 | 1.35 ± 0.098 |
| SAGGSAGGSAGKPKVKKITLKNPATGETVEAEVVEVDGYLVVRVRNKDDPEKTETFVFKLSAGGSAGGSAGG [r17_73_TrROS_Hall] | 2.58 ± 0.049 | 2.48 ± 0.12 | 2.17 ± 0.051 |
| SAGPGWIMIRVKIKMRKWKDGKPVRRPIEIPIMAPADGDPEAARRKAEELAEFLAQMYGMEIEDVEIFPSAG [r5_497_TrROS] | 3.74 ± 0.057 | 3.55 ± 0.065 | 3.07 ± 0.092 |
| SAGGSAGGSAGLEVPPGVPVKIPVVYVDKENDYVIVTELTITPDSGEIFYDPKIIPKKELSAGGSAGGSAGG [r11_468_TrMRF] | 0.734 ± 0.07 | 0.65 ± 0.099 | 0.251 ± 0.063 |
| SAGGSMIELTLTSTVPDGTPASTVPPEVAREQALAYAEAQGLTVVEIRVEFDPEAGTITIPVVTALSAGGSA [r2_237_JUSTAS] | 0.679 ± 0.13 | 1.11 ± 0.12 | 1.38 ± 0.042 |
| SKETETVEMEITITVNGKKVKIKATFTRNKDGSITMTITYEDGKKIEITFTNGKIVIVDKKTKKIIAEIPSA [r9_970_TrROS_Hall] | 4.41 ± 0.15 | 4.14 ± 0.25 | 2.54 ± 0.19 |
| SAGGSAGGSAGMETTDSVITYPDGSVVTVTTLPDGTTRVTTFYPESGLTEEEIVPAAELGSAGGSAGGSAGG [r11_1015_JUSTAS] | 2.56 ± 0.1 | 2.19 ± 0.086 | 1.8 ± 0.086 |
| SAGGLLEELGLEIEEVEVEVEEVEVGQTVRIRVKVKGEDGEEFEIELEIRLPPPPVEVEEEVEEEEESAGGS [r8_216_TrROS_Hall] | 1.83 ± 0.09 | 1.82 ± 0.14 | 1.91 ± 0.2 |
| SAGGSAMPPNMKKVPISIHIPAENYKRDPDGKWKFTADELARHIQRGFRQRFGMPIKKIDVHVHPPSAGGSA [r15_415_TrROS] | 0.00448 ± 0.31 | -0.0271 ± 0.21 | -0.000463 ± 0.31 |
| SAGGSAEQTATIESVEYNEETGELTIRIRLENGEEVEITVKPDGTITITLPPGAKITEIEIERLPPSAGGSA [r15_959_TrROS_Hall] | 2.3 ± 0.32 | 2.53 ± 0.35 | 1.91 ± 0.15 |
| SAGGPEELAERIAEFARENGYEVDVLSVEELPGDFVRIHMRIRGLSEDEPVFERDAVLVFPPLPGERSAGGS [r8_102_TrMRF] | 3.439 ± 0.02 | 3 ± 0.052 | 1.45 ± 0.025 |
| MKIIDVVPTPDGLIVVIKVVFPNTEEAYVSASDLDKLIKEIFERFGVKPEYLKITDIKAFSPEELKEFLEES [r1_119_TrMRF] | 2.98 ± 0.031 | 2.78 ± 0.075 | 2.37 ± 0.072 |
| SAGGSAGGDEVKIEVEVKKVKVKVRVRVKNEDGEEKEVEKEFEVEVVKVKIEFKSPEEAKKLGLSAGGSAGG [r6_149_TrROS_Hall] | 0.144 ± 0.42 | 1.11 ± 0.27 | 1.14 ± 0.088 |
| SAGGSAGGSASMDTVVEVGPEILSTGLPIEKVTYDPNTGKTYIETPDKLYVIDSDGNITVDASAGGSAGGSA [r18_445_JUSTAS] | 1.69 ± 0.025 | 1.72 ± 0.057 | 1.72 ± 0.057 |
| SKLKIEDIKWNPNYPGMYEFKIKLPDKPATIQIPHDPNNGRFMMEIWYPDKPVTVQFDSWDDALAFIKELSA [r9_366_TrROS] | 1.35 ± 0.16 | 1.52 ± 0.11 | 1.6 ± 0.046 |
| SAGKKQEVTIMIPIRGPAQAREQVEEFANDFPIKPTRVHPNPNKNHYWVMVTMKVPGAKIKIMIWIPPSAGG [r19_262_TrROS] | 4.19 ± 0.057 | 3.67 ± 0.13 | 2.94 ± 0.11 |

| Sequence | folding stability dG unfold [1] [kcal/mol] | folding stability dG unfold [2] [kcal/mol] | folding stability dG unfold [3] [kcal/mol] |
| --- | --- | --- | --- |
| SAGGSAGGSAAVILPEGTLYFTLPDGSRAAATVDPATGTVHIRLYSPDGVPLAEADIPIDPSAGGSAGGSAG [r3_447_TrMRF] | 2.26 ± 0.037 | 1.83 ± 0.07 | 0.947 ± 0.024 |
| SKPDPVKIEIEQERNPNGQPQHTIKIQDKGKDRKFPIHNMSIDEFDPDDPYIKIRSPGNGQSHTIPPDDLSA [r9_1186_TrROS] | 1.22 ± 0.022 | 0.832 ± 0.098 | -0.0606 ± 0.073 |
| SAGGSAGGSKGKKITIILPPGMPPDAIKNWLAPLGINITIEPIPVVKPKRDPDDGEETYEPYGSAGGSAGGS [r12_80_TrROS] | 0.596 ± 0.24 | 0.579 ± 0.2 | 0.73 ± 0.1 |
| SAGGSAGGSAGGIYPGPGNLLYFTGEDDYVKVIKITPPDNTIKIDIEIVPKGEATKIPYSAGGSAGGSAGGS [r10_257_TrMRF] | -0.331 ± 0.28 | -0.00595 ± 0.097 | 0.161 ± 0.059 |
| SAGGSKIKIVEVKKNEDGTVTVKVEVEINGKKYTIEARFETLEDGKKVMTLRITNENGEEIEIVLPSAGGSA [r2_376_TrROS_Hall] | 5.22 ± 0.17 | 5.12 ± 0.32 | 3.45 ± 0.38 |
| SAGGMVEVKPFEIKPPGSSITVTLTDPQGNVIGSTTVSVPTGRLELTITVEPDKTVKVTLTELPPSEVSAGG [r13_935_JUSTAS] | -0.262 ± 0.34 | 1.01 ± 0.13 | 1.42 ± 0.086 |
| SAGGSAGGSAGMTLKVEVKVKVKVFDENGKLVREEEVTVEVEIELEPAPELRFLSEEELKSAGGSAGGSAGG [r17_325_TrROS_Hall] | 2.63 ± 0.057 | 2.12 ± 0.11 | 1.24 ± 0.053 |
| SAGGSAGGSDTPTINIPPGMGNPEQAIEQLKEIREHFPPGKKISISAPGGWKPELKEAGLITVSAGGSAGGS [r12_992_TrROS] | 1.23 ± 0.08 | 0.513 ± 0.11 | -0.37 ± 0.11 |
| SAGGSAKKVVLLTIPPSANLPPNSKLVVKFPNGKEKTYKFNDKPVVILLVTDNNGNFSFGVSVEDKSAGGSA [r15_992_TrMRF] | 3.44 ± 0.17 | 2.68 ± 0.3 | 1.87 ± 0.063 |
| PISAEEAVDYAKHLAERLLKENPPGQEEVEIEFQSPNGWTVKIEIDPNNRKIDVEVYPRNGEPIAKAKIKVS [r1_370_TrROS] | 0.378 ± 0.33 | 0.205 ± 0.35 | 0.108 ± 0.12 |
| SAYKITIKITITDPVTGETTTITVELISSEEEAKKEAEKLAASYPGKKVTIDLVEVVPVPPLSEEELKLSSA [r9_421_JUSTAS] | 2.68 ± 0.054 | 2.43 ± 0.12 | 1.91 ± 0.081 |
| PKYVIKAVNPKVGEVKTIEVDDDPEKAIEALKALKKADPDIKFYISGVKSDELIEAAKEAGLEDLNFTEVES [r1_114_TrMRF] | 4.02 ± 0.27 | 4.02 ± 0.32 | 3.2 ± 0.15 |
| SAGGEETVTLELELEFEPGMTEEELEEKARELAEALAEELGLEVEVEVRVERDEDGRVRVTVEVRVKSAGGS [r16_279_TrROS_Hall] | 2.06 ± 0.051 | 2.56 ± 0.086 | 2.94 ± 0.076 |
| SAGGKEIYVVRIEVYYPSNGKVEEKEYVIEATPEEAEELAKKIAEAFKEEAGEEVEVLRVEIKVYDLSAGGS [r16_140_TrMRF] | 4.68 ± 0.072 | 4.65 ± 0.12 | 3.82 ± 0.22 |
| SAGGEELIKELLDKLPPDVKEATIEIEVDGKKVTLTVNEDGEVTLEVIDPETKEKKTFKIKNGKIEPVSAGG [r13_803_TrROS_Hall] | 3.19 ± 0.079 | 2.97 ± 0.28 | 2.46 ± 0.28 |
| SAGGSAGGSAKKKYVFTIPVKPNTFNPEKLKKFIEKAFPEFKNYEIKVEVLPDGTAKVYIEASAGGSAGGSA [r18_65_TrMRF] | 4.4 ± 0.11 | 3.89 ± 0.24 | 2.69 ± 0.12 |
| SAGGSAGSYLVRVRIRRPEDGKELADAVFEVPPDEPVTAEAILKELGIPPEEAKNIEIEVEVFELGSAGGSA [r15_665_TrMRF] | 3.05 ± 0.031 | 2.75 ± 0.061 | 2.26 ± 0.049 |
| SAGMLKVKIKIEIEKDGKKIELEKEIEAESEEELLKAAEELAKELEKKGIKIKKIEVEVEKIPEPEEEESAG [r5_660_TrROS_Hall] | 2.77 ± 0.055 | 2.5 ± 0.12 | 2.04 ± 0.12 |
| MYVVRAKFKIKGEDGSEFEAETVILVEETPEEAKEKVEEKAREIAEELGLSLENITEIEVEVLSLDEELLPS [r1_159_TrMRF] | 2.16 ± 0.15 | 2.12 ± 0.27 | 1.44 ± 0.1 |
| SAMVLRLVVTVTGKIGDSLSTTTITREVSLEEYSEEELEALAEAVADAIRAANPEATVSLSILPEEELESAG [r14_723_JUSTAS] | 2.565 ± 0.02 | 2.58 ± 0.097 | 2.47 ± 0.074 |
| SAGGSAGGSAGGMIIKINGKYYKIKKIEKNPNGKYTITTENGKKYEFKNVKIFSEEELKSAGGSAGGSAGGS [r10_1151_TrROS_Hall] | 4.19 ± 0.061 | 3.86 ± 0.18 | 3.05 ± 0.18 |
